From paper PMC4850247

Key:
[1] = biological target: Full-length human OTUD2 (human) (UniProt Q5VVQ6); test: covalent labelling with an active site-directed probe (SDS-PAGE, fluorescence scan); 0.2 μM OTUD2 with 2 μM TAMRA-labeled mUb-PA or diUb-PA probes, time course, 30°C, 20 mM Tris-HCl pH 7.5, 150 mM NaCl; bands quantified and fitted by pseudo-first-order one-phase association, plateau forced to that of K11
[2] = biological target: OTUD2 OTU (aa 147-314) (human) (UniProt Q5VVQ6); test: covalent labelling with an active site-directed probe (SDS-PAGE, fluorescence scan); 0.1 μM OTUD2 constructs with 1 μM TAMRA-labeled K11-linked diUb-PA, time course up to 60 min, bands quantified
[3] = biological target: Full-length human OTUD2 (human) (UniProt Q5VVQ6); test: as above
[4] = biological target: OTUD3 (aa 52-209) (human) (UniProt Q5T2D3)
Chain of UniProt Q5T2D3 (Q5T2D3 52-209): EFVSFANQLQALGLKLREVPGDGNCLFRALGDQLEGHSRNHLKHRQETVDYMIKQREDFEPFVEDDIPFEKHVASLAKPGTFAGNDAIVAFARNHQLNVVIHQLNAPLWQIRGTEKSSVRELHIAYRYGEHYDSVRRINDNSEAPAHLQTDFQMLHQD

[5] = biological target: Full-length human OTUD2 (human) (UniProt Q5VVQ6)

| Substance | t1/2 of covalent probe labelling [1] [min] | KM of AMC release from diUb-AMC (Michaelis-Menten, 15 nM OTUD3) [4] [µM] | KM of AMC release from diUb-AMC (Michaelis-Menten, 15 nM OTUD2, substrate up to 20 μM) [5] [µM] | other results |
| --- | --- | --- | --- | --- |
| TAMRA-labeled K33 triazole-linked diUb-PA probe (from UniProt P0CG48 1-75; P0CG48 1-75) | 8.5 | – | – | – |
| K27 triazole-linked diUb-AMC substrate (from UniProt P0CG48 1-76) | – | 4.7 | – | – |
| K11 triazole-linked diUb-AMC substrate (from UniProt P0CG48 1-76) | – | 3.7 | 20 | – |

Continued, in another order:

| t1/2 of covalent probe labelling [1] [min] | KM of AMC release from diUb-AMC (Michaelis-Menten, 15 nM OTUD3) [4] [µM] | KM of AMC release from diUb-AMC (Michaelis-Menten, 15 nM OTUD2, substrate up to 20 μM) [5] [µM] | Substance | other results |
| --- | --- | --- | --- | --- |
| 3.5 | – | – | TAMRA-labeled K11 triazole-linked diUb-PA probe (from UniProt P0CG48 1-75; P0CG48 1-75) | t1/2 of covalent probe labelling [2]: 6.8 min; t1/2 of covalent probe labelling [3]: 5.3 min |
| – | – | 100 | K33 triazole-linked diUb-AMC substrate (from UniProt P0CG48 1-76) | – |
